From paper PMC7185714, “Structure and conformational cycle of a bacteriophage-encoded chaperonin” (PLoS ONE, 2020)

How the values were obtained:
ɸEL (gp146) [1] = target: T1, ɸEL (gp146) (Pseudomonas phage EL, UniProt Q2Z0T5); test: cryo-EM structure ([…] Å); format: binding; conditions: double ring, D7, pH 7.5, Mg2+; pseudo-atomic model; ADP also modelled in crystal form II (6TMU, chains B, D, F, partial occupancy)
T1 construct: tetradecameric double ring (~863 kDa) or single-ring heptamer (~431 kDa, with ATP and in the crystals)
T1 sequence (Q2Z0T5 1-558): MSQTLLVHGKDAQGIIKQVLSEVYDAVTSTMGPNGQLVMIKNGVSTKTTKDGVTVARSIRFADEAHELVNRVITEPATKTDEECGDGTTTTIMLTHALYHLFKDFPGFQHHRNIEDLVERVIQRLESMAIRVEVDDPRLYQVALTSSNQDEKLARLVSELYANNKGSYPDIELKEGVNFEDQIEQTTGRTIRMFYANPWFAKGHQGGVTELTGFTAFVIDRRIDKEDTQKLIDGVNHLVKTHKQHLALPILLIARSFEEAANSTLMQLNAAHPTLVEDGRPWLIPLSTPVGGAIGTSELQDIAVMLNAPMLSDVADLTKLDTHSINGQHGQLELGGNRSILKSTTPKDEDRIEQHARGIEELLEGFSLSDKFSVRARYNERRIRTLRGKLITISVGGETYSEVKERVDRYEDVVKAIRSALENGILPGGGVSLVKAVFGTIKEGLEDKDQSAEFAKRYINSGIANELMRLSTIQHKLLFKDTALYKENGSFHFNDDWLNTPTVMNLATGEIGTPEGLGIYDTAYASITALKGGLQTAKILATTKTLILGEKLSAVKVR

GroEL from E. coli [2] = target: T2, GroEL from E. coli (E. coli, UniProt P0A6F5 1-548)
T2 sequence (P0A6F5 whole entry): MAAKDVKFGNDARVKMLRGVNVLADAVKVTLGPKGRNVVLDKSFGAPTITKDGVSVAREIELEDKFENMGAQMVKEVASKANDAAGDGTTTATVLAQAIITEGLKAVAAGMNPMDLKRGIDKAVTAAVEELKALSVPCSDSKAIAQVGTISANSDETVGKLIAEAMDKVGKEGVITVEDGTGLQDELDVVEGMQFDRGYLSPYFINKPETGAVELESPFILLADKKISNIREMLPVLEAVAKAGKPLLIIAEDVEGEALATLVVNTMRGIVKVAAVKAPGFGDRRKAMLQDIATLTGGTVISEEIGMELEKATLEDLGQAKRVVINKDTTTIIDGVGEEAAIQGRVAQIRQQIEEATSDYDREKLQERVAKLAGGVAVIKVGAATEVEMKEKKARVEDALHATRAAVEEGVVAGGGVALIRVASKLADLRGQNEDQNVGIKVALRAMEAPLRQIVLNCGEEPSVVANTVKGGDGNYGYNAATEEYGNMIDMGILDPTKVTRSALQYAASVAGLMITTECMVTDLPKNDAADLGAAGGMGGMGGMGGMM

[3] = target: chaperonin gp146 (ɸEL) from the phage EL of Pseudomonas aeruginosa (Pseudomonas bacteriophage EL)
[4] = target: chaperonin gp146 (ɸEL) from the phage EL of Pseudomonas aeruginosa (Pseudomonas bacteriophage EL); test: SEC-MALS; ɸEL at 2 g/L, with 2 mM ATP, 20 mM HEPES-NaOH pH 7.5, 100 mM KCl, 2 mM Mg acetate, 25°C
[5] = target: chaperonin gp146 (ɸEL) from the phage EL of Pseudomonas aeruginosa (Pseudomonas bacteriophage EL); test: cryo-EM structure; ɸEL with ADP, single particle analysis, D7 symmetry, 5.9 Å
[6] = target: chaperonin gp146 (ɸEL) from the phage EL of Pseudomonas aeruginosa (Pseudomonas bacteriophage EL); test: SEC-MALS; ɸEL at 2 g/L, with 2 mM ADP, 20 mM HEPES-NaOH pH 7.5, 100 mM KCl, 2 mM Mg acetate (also run at 50 mM KCl), 25°C
[7] = target: chaperonin gp146 (ɸEL) from the phage EL of Pseudomonas aeruginosa (Pseudomonas bacteriophage EL); test: cryo-EM structure; apo-ɸEL, no nucleotide, single particle analysis, C2 symmetry, 3.45 Å
[8] = target: chaperonin gp146 (ɸEL) from the phage EL of Pseudomonas aeruginosa (Pseudomonas bacteriophage EL); test: crystal structure; ɸEL crystallised with 2 mM ATP, 5 mM BeSO4 and 20 mM NaF; crystal forms I (4.03 Å) and II (3.54 Å)
[9] = target: chaperonin gp146 (ɸEL) from the phage EL of Pseudomonas aeruginosa (Pseudomonas bacteriophage EL); test: SEC-MALS; ɸEL at 2 g/L, with 2 mM ATP, 20 mM HEPES-NaOH pH 7.5, 50 mM KCl, 4 mM Mg acetate, 25°C
[10] = target: chaperonin gp146 (ɸEL) from the phage EL of Pseudomonas aeruginosa (Pseudomonas bacteriophage EL); test: SEC-MALS; ɸEL at 2 g/L, no nucleotide, 20 mM HEPES-NaOH pH 7.5, 100 mM KCl, 2 mM Mg acetate (also run at 50 mM KCl), 25°C
[11] = target: chaperonin gp146 (ɸEL) from the phage EL of Pseudomonas aeruginosa (Pseudomonas bacteriophage EL); test: cryo-EM structure; ɸEL with ATPγS, single particle analysis, D7 symmetry, 5.8 Å
ɸEL (gp146) [12] = target: T1, ɸEL (gp146); test: cryo-EM structure ([…] Å); format: binding; conditions: double ring, D7, pH 7.5, Mg2+; slowly hydrolysed ATP analogue; pseudo-atomic model
ɸEL (gp146) [13] = target: T1, ɸEL (gp146); test: X-ray crystal structure ([…] Å, crystal form I); format: binding; conditions: ATP added with BeSO4/NaF; ATP and ADP-BeFx not distinguishable, modelled as ATP with Mg2+; single-ring heptamer, equatorial domain site; also in form II (6TMU, 3.54 Å; chains A, C, E, G)
GroEL = target: T3, GroEL (Escherichia coli, UniProt P0A6F5); test: NADH-coupled ATPase assay; format: biochemical; conditions: 1 mM ATP, 50 mM Tris-HCl pH 7.5, 10 or 100 mM KCl, 10 mM MgCl2, 25°C; without GroES; rates only in figure
T3 construct: purified GroEL tetradecamer; source and preparation not described
T3 sequence (P0A6F5 2-548): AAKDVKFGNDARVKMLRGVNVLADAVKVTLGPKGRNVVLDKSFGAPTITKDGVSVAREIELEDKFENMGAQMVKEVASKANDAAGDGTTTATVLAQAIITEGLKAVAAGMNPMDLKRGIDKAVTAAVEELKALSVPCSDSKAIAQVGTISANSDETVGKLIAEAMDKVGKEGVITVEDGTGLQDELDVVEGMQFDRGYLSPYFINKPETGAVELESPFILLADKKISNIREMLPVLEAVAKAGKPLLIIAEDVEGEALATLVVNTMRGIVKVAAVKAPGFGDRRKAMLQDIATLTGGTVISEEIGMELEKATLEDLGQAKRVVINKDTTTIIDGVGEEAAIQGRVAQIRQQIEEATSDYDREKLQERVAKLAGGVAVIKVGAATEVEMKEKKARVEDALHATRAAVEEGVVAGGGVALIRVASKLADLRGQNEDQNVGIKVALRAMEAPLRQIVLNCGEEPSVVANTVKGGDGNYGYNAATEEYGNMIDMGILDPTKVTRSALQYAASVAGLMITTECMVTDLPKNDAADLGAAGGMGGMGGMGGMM

[14] = substrate: Nc1ncnc2c1ncn2[C@@H]1O[C@H](COP(=O)(O)OP(=O)(O)OP(=O)(O)O)[C@@H](O)[C@H]1O; test: NADH-coupled ATPase assay (pyruvate kinase/lactate dehydrogenase), Hill fit; format: biochemical, Pseudomonas phage EL; conditions: high salt: 50 mM Tris-HCl pH 7.5, 100 mM KCl, 10 mM MgCl2, 25°C, Hill coefficient fitted
GroEL from E. coli [15] = target: T2, GroEL from E. coli; test: cell-based or functional assay

With `Nc1ncnc2c1ncn2[C@@H]1O[C@H](COP(=O)(O)OP(=O)(O)O)[C@@H](O)[C@H]1O` [ADP] the “cryo-EM structure (5.9 Å)” value (ɸEL (gp146) [1]) was “we determined the solution structure of ɸEL in the presence of ADP by single-particle cryo-EM”.

“double mutant of maltose binding protein (DM-MBP), denatured (from UniProt P0AEX9 27-396) (natural protein)” gave a GroEL ATPase activity with denatured DM-MBP, at 10 and 100 mM KCl, 1 mM ATP (GroEL from E. coli [2]) of 2 fold and a decrease in ɸEL ATPase activity with denatured DM-MBP, at 10 mM KCl, 1 mM ATP [3] of 60%.

With “chaperonin gp146 (ɸEL) from the phage EL of Pseudomonas aeruginosa (natural protein)” the stoichiometry N [4] was 7, the stoichiometry N [5] was 14 and the stoichiometry N [6] was 14. It also gave a stoichiometry N [7] of 14, a stoichiometry N [8] of 7 and a stoichiometry N [9] of 14. For the same molecule, the stoichiometry N [10] was 14 and the stoichiometry N [11] was 14.

In the case of `Nc1ncnc2c1ncn2[C@@H]1O[C@H](COP(=O)(O)OP(=O)(O)OP(O)(O)=S)[C@@H](O)[C@H]1O` [ATPγS], the “cryo-EM structure (5.8 Å)” value (ɸEL (gp146) [12]) is reported as “we also determined the cryo-EM structure of ɸEL in the presence of the slowly hydrolyzing”.

`Nc1ncnc2c1ncn2[C@@H]1O[C@H](COP(=O)(O)OP(=O)(O)OP(=O)(O)O)[C@@H](O)[C@H]1O` [ATP] was tested, and the “X-ray crystal structure (4.03 Å, crystal form I)” value (ɸEL (gp146) [13]) was “All subunits as judged from the electron density had either ATP or ADP•BeFX bound” and the “NADH-coupled ATPase assay” value (GroEL) was “ATPase activity of GroEL and ɸEL in presence and absence of a two-fold excess”.

B1: ɸEL (gp146) (Pseudomonas phage EL) (protein)
chain: MSQTLLVHGKDAQGIIKQVLSEVYDAVTSTMGPNGQLVMIKNGVSTKTTKDGVTVARSIRFADEAHELVNRVITEPATKTDEECGDGTTTTIMLTHALYHLFKDFPGFQHHRNIEDLVERVIQRLESMAIRVEVDDPRLYQVALTSSNQDEKLARLVSELYANNKGSYPDIELKEGVNFEDQIEQTTGRTIRMFYANPWFAKGHQGGVTELTGFTAFVIDRRIDKEDTQKLIDGVNHLVKTHKQHLALPILLIARSFEEAANSTLMQLNAAHPTLVEDGRPWLIPLSTPVGGAIGTSELQDIAVMLNAPMLSDVADLTKLDTHSINGQHGQLELGGNRSILKSTTPKDEDRIEQHARGIEELLEGFSLSDKFSVRARYNERRIRTLRGKLITISVGGETYSEVKERVDRYEDVVKAIRSALENGILPGGGVSLVKAVFGTIKEGLEDKDQSAEFAKRYINSGIANELMRLSTIQHKLLFKDTALYKENGSFHFNDDWLNTPTVMNLATGEIGTPEGLGIYDTAYASITALKGGLQTAKILATTKTLILGEKLSAVKVR
notes: tetradecameric double ring (~863 kDa) or single-ring heptamer (~431 kDa, with ATP and in the crystals)
For B1, the Km [14] was 72 ± 8 µM and the kcat [14] was 9.6 ± 0.12 s⁻¹ (per tetradecamer).

B2: E. coli GroES (natural protein)
chain: MNIRPLHDRVIVKRKEVETKSAGGIVLTGSAAAKSTRGEVLAVGNGRILENGEVKPLDVKVGDIVIFNDGYGVKSEKIDNEEVLIMSESDILAIVEA
With B2 the “decrease in GroEL ATPase activity with a 2-fold molar excess of GroES, at 10 and 100 mM KCl, 1 mM ATP” value (GroEL from E. coli [15]) was ~50%.
